According to PMC4579573, “Higher -Order Assembly of BRCC36–KIAA0157 Is Required for DUB Activity and Biological Function” (Molecular cell, 2015):

Columns and labels:
[1] = target: the molecule itself; assay: SEC-MALS; complexes and subcomplexes purified from insect cells; size exclusion chromatography coupled to multi-angle light scattering (Figures S1B-E and S8E-G)
[2] = target: the molecule itself; assay: crystal structure; CfBRCC36–KIAA0157ΔC, seleno-methionine-SAD, two heterodimers in the asymmetric unit, 2.55 Å

B1: C. floridanus BRISC complex (complex)
chain 1: MDDSSLQKVELQTDVYMVCLQHALSTENFEVMGLLIGNFACGIAKISAVIILRRLDKKKDRVEISSEQLLKAAAEAERLTVELNRPMRVLGWYHSHPHITVCPSHVDVRTQATYQTMDHSFVGLIFSVFSEGKESKEHEIFLNCFQSDNGEATEIPLEIVHTPDISDRCLRTMTDLSKILVQEEEDMAEACKDHPDVLASIHNNAVRTRALIHITDIITKPLVQTFEKRIALNKLRATHLQRQLQELQKMCNG
chain 2: MADSDLLVTISGAALSLLFFENVRSVGNQMGFLLGEALEFIVKTYTDSDNQVETVKIHINVEAIVTCPLADLLHDSTNHINKEKLKDFVRDKSKQVIGWFCFRRNTTNLTLTLKDKLLHKQFASHFSGVNGCKEDFFLTCLLNASTSETSGTHKFRHVFLRHNKRGMFEPISLKINNLGDDASRHDGSDYKPTPVRKSTRTPDSFTKLIESLNLDVARIDGLDSAMLIQKAAEHHLMSLIPKVCESDLEVAELEKQVHELKIKIATQQLAKRLKINGENCDRISKASKDNCFSEKIDSSKKNEVRIGDDACLQREHIPSCTQSVGPNNRTVCRNTAACIAKSAEKSRRAGRSNLQESGNQQQETQNFFTNSRRSIPEIATESICQEGSEISMGRGRGSGRGSHEFTPGMKKIRRTPGTSHMHSSRERSTTPPEQDFSDAECPISSPVLRSYSQVTKKTNLDKCNSMAPLDI
chain 3: MLNQQHPLLSTIDSYIEPLLKRVLQTKRLGVCCGLIKLDSVSSSCNKSKNDCFKLSIPYAGEHLVWSVLFDSQYPEMGPDFIFNDQSFLADPDINTLSTWIPSLTKWNPNDIDALLNVLSELLLYYKEHQLHLLGKQGDRLQFEYSTLVGETEISREDIEVIMLPLGTKPTEARFLIRIVMDYSRLPPRINKSQNDEAMLIIMFYGPDWNRIIPQLYLSKTLEDIFGGPESLHIPPFPSSKYLMDYVPEVKKFIDEKIHNVVQSFESRKSFITVLIVSQRGSILEYDAIEFNWISMLLEHRDFHFLIHFHLPSTFPKEKPQITLQSVYHMTSQGTLYKEVLDDTPYSPRWQIILMVDKLLTYIMENAVQKFQANSMKNRF
For B1, the “stoichiometry N” value [1] was 2.

B2: CfBRCC36 (enzyme, C. floridanus, UniProt E2AXC7 1-253, looked up)
chain: MDDSSLQKVELQTDVYMVCLQHALSTENFEVMGLLIGNFACGIAKISAVIILRRLDKKKDRVEISSEQLLKAAAEAERLTVELNRPMRVLGWYHSHPHITVCPSHVDVRTQATYQTMDHSFVGLIFSVFSEGKESKEHEIFLNCFQSDNGEATEIPLEIVHTPDISDRCLRTMTDLSKILVQEEEDMAEACKDHPDVLASIHNNAVRTRALIHITDIITKPLVQTFEKRIALNKLRATHLQRQLQELQKMCNG
notes: BRCC36 of Camponotus floridanus, residues 1-253; The crystal of PDB 5CW4 held seleno-methionine protein; also called C. floridanus BRCC36; B36; source: insect cells (MultiBac expression system), co-expressed with its partners, purified
B2: binds [2].

B3: zebrafish BRISC complex (complex)
chain 1: MAVNAVHLESDAFLVCMNHALSTEKEEVMGLCIGEVDTNRIVHIHSVIILRRSDKRKDRVEISPEQLSAASTEAERLAEMTGRPMRVVGWYHSHPHITVWPSHVDVRTQAMYQMMDQGFVGLIFSCFIEDKNTKTGRVLYTCFQSVQAQKGSEYERIEIPIHVVPHEAIGKVCLESAVELPRILCQEEQDTYRRIHSLTHLDPITKIHNGSVFTKNLCSQMSAISGPLLQWLEDRLEQNKQSIITLQKEKELLTQELAAL
chain 2: not shown
chain 3: MNSLSPELALSRISPELRPLLCSIVRNGRVGLDSSSCLRITDLKSGCTSLMPGPCCDRFKLHIPYAGETLKWDIIFNARDPELPPDFIFGEDADFLPEPSELPNLVSWDSGKPECLLLLVKEMLQQYHQYQCQRLRDSSRLLFEYDSLLEDPNYGRNMEIYAGRKNSWTGEFSARFLLKLPVDFSNIPIYLLKDTALDPGEDVALLSVSFEDAEATQVFPKLYLSPSIEHALGGSSALHIPAFPSGGCLIDYVPQVCQLLTNKVQYVIQGYHKRREYIAAFLSHFGMGVVEYDAVGFTKLTLLLMWKDFCFLVHVDLPLYFPRDQPTLTFQSIYHFTSSGQLYSQVQKSYPYSPRWDGNEMAKRAKAYFKSFIPQFQEGAFANGKL
chain 4: METTEPGQADGEERMMDLRPRTRSNPEGAEDRRSSTGSLNSSLPSAPQPAVGSRVEGEGEAASSDSPPVSATAIAATASVPVAAVGNTTTTNTASLPAMSPAVKERPKPSQPTMPTQIPPSAELHLRAPRVNCPEKVIICLDLSEEMSLQKLESINGSKTNALNISQKMIEMFVRTKHKIDKRHEFALVVVNDDAMWLSGFTSDPRELCSCLYDLETNVCESFNLEDLFNVILQKIELPQMENIQTIPPPFVVRTLLVFSRHAGMLQFNPSDAVKKMLQSPYFFFDVVFLHNGTEEQTEDTSWKDVYASFCELDTKGMCYRFEVSLCGPAIELHNCMAKLLCHPLQRPFQSHASYSLLEDEDTLENEATV
B3 was tested, and the “stoichiometry N” value [1] was 2.

B4: Dr BRCC36–KIAA0157 binary complex (complex)
chain 1: MAVNAVHLESDAFLVCMNHALSTEKEEVMGLCIGEVDTNRIVHIHSVIILRRSDKRKDRVEISPEQLSAASTEAERLAEMTGRPMRVVGWYHSHPHITVWPSHVDVRTQAMYQMMDQGFVGLIFSCFIEDKNTKTGRVLYTCFQSVQAQKGSEYERIEIPIHVVPHEAIGKVCLESAVELPRILCQEEQDTYRRIHSLTHLDPITKIHNGSVFTKNLCSQMSAISGPLLQWLEDRLEQNKQSIITLQKEKELLTQELAAL
chain 2: not shown
In the case of B4, the “stoichiometry N” value [1] is reported as 2.
